Measurements published in paper doi:10.1101/2023.10.11.561842.

Columns and labels:
[1] = target: ErNaR, NDQ rhodopsin (light-driven sodium pump) from Erythrobacter sp. HL-111 (Erythrobacter sp. HL-111); assay: cryo-EM structure
[2] = target: ErNaR, NDQ rhodopsin (light-driven sodium pump) from Erythrobacter sp. HL-111 (Erythrobacter sp. HL-111); assay: SEC
[3] = target: ErNaR, NDQ rhodopsin (light-driven sodium pump) from Erythrobacter sp. HL-111 (Erythrobacter sp. HL-111); assay: cryo-EM structure; remark: listed apart in the source
[4] = target: ErNaR, NDQ rhodopsin (light-driven sodium pump) from Erythrobacter sp. HL-111 (Erythrobacter sp. HL-111); assay: SEC; remark: listed apart in the source

stoichiometry N [1]: 5
stoichiometry N [2]: 5
stoichiometry N [3]: 5
stoichiometry N [4]: 5
Substance: ErNaR, NDQ rhodopsin (light-driven sodium pump) from Erythrobacter sp. HL-111 (natural protein)
